Laboratory results as given in US11473073B2, “Aminopeptidases for protein hydrolyzates” (DUPONT NUTRITION BIOSCIENCES APS, priority 2015, dated 2022).

Experiments:
Format in all cases: biochemical
Na-caseinate = assay: Degree of hydrolysis of pre-hydrolysed Na-caseinate; settings: Casein, 50° C., 20 hr
Procedure: (§1) The degree of hydrolyses (DH) describes the relative amount of cleaved peptides bounds compared to an acid hydrolyses of the same amount of protein conducted e.g. in 6 M HCL at ˜120° C. for ˜24 h. The higher the DH can therefore be applied to assess the efficiency of amino acid liberation of a general PepN such as a PepN 1 or a PepN 2 type. The cell free culture broth was concentrated (10 kDa cut-off, Sartorius, Göttingen, Germany) and desalted applying a disposal desalting column (PD10, GE, Munchen, Germany) as described by the manufacturer. As substrates were pre-hydrolysed 10% (w/w) Na-caseinate (DMK, Germany), whey protein isolate (WPI; Arla, Viby, Denmark), soy protein isolate (SPI; SUPRO® 760, DuPont, Brabrand, Denmark) and gluten suspensions were applied. The pre-hydrolysis was conducted with 1% (w/wprotein) of FOODPRO® Alkaline Protease, 1% (w/wprotein) FOODPRO® PNL for the Na-Caseinate, the WPI as well as the SPI suspension. All pre-hydrolyses were conducted at 55° C. for 18 h followed by an inactivation step at 95° C. for 20 min. Each applied PepN 2 has been inactivated at 95 C for 15 min as a control of the elimination of any carryover of amino acids from the culture broth to the final hydrolyses as well as for the sufficient inactivation of the applied endopeptidases. The hydrolyses were conducted in a 96-well micro titer plate format and consisted of 150 μL of the pre-hydrolyzed protein suspension combined with 50 μL of a PepN 2 stock solution as indicated in Table 1 below. The hydrolyses were conducted at 50° C. for 20 hr, subsequently, the hydrolysis were stopped by the addition of 20 μL 2 M TCA (Trichloroacetic acid, Sigma-Aldrich, Schnelldorf, Germany). The efficiency of the amino acid liberation of the PepN 2 types from Neosartorya fischeri and Aspergillus clavatus can be seen in Table 1 (B) and (A). […] For the gluten hydrolyses, an increased DH was noticed in the protein range from 0.02-0.3 mg/mL PepN 2.

[1] = tested on: whey protein isolate (WPI); assay: Degree of hydrolysis of pre-hydrolysed whey protein isolate; settings: 50° C., 20 hr
Procedure: as §1

[2] = tested on: soy protein isolate (SPI); assay: Degree of hydrolysis of pre-hydrolysed soy protein isolate; settings: 50° C., 20 hr
Procedure: as §1

gluten = assay: Degree of hydrolysis of pre-hydrolysed gluten; settings: 50° C., 20 hr
Procedure: as §1

[3] = tested on: peptide WHWLQLKPGQPMY (SEQ ID NO:26); assay: Hydrolysis of proline containing peptide, LC-MS; settings: peptide 1 mg/mL, aminopeptidase 1 ug/mL, CPB-Buffer, 55° C.; FIG. 5-7
Procedure: The peptide […] (SEQ ID NO:26) was hydrolysed with TRI03 and TRI035. The peptide (1 mg/mL) was incubated with 1 ug/mL of the aminopeptidase in 20 mM CPB-Buffer (20 mM Citric acid, 20 mM Phosphate. 20 mM Boric acid) at 55° C. Aliquots (50 μL) were stopped with 50 rel 5% TFA at the indicated time points and subjected to LC-MS analysis.
Capillary LC-MS/MS analyses were performed using an Agilent 1100 LC system (Agilent Technologies) interfaced to a LTQ Orbitrap Classic hybrid mass spectrometer (Thermo Scientific, Bremen, Germany). Samples were loaded onto a 15 cm Phenomenix Jupiter 4μ Proteo 90A, C4 analytical column. Separation was performed at a flow rate of 16 μL/min using a 10 min gradient of 0-40% Solvent B H2O/CH3CN/HCOOH (50/950/0.65 v/v/v) into the IONMAX® ion source (Thermo Scientific, San Jose). The LTQ Orbitrap Classic instrument was operated in a data-dependent MS/MS mode. The peptide masses were measured by the Orbitrap (MS scans were obtained with a resolution of 60 000 at m/z 400), and up to 2 of the most intense peptide m/z were selected and subjected to fragmentation using CID in the linear ion trap (LTQ). Dynamic exclusion was enabled with a list size of 500 masses, duration of 40 s, and an exclusion mass width of ±10 ppm relative to masses on the list.
The RAW files were accessed with the program Skyline 2.6.0.7176 (MacLean, B., et al., “Skyline: an open source document editor for creating and analyzing targeted proteomics experiments”, Bioinformatics, 2010, 26(7): p. 966-8) which uses the MS1 intensities to build chromatograms (Schilling, B., et al., “Platform-independent and label-free quantitation of proteomic data using MS1 extracted ion chromatograms in skyline: application to protein acetylation and phosphorylation”, Mol Cell Proteomics, 2012. 11(5): p. 202-14). The precursor isotopic import filter was set to a count of three, (M, M+1, and M+2) at a resolution of 60,000 and the most intense charge state was used. Peptide sequences of the substrate as well as cleavage products were typed into Skyline and intensities were calculated in each sample. […]

[4] = Product inhibition of H-Ala-pNA hydrolysis by amino acid inhibitor mix; settings: pH 9.0, 30° C.
Procedure: Sigma cat # D2650). […] […] and proline were dissolved in DMSO. All other amino acids were dissolved in buffer. […] The reaction was started by adding 20 μL substrate. Only one substrate concentration was used per plate.

[5] = inactivated enzyme at the highest conc.

B1: TRI035: fungal aminopeptidase type-2 (pepN_2), NCBI XP_001273779 from Aspergillus clavatus NRRL 1 (protein)
chain: MQTFGAFLVSFLAASGLAAANAPGGPGGHGRKLPVNPKTFPNEIRLKDLLHGSQKLEDFAYAYPERNRVFGGQAHLDTVNYLYRELKKTGYYDVYKQPQVHQWTRADQSLTLGGDSIQASTMTYSPSVNVTAPLSLVSKLGCAEGDYSADVKGKIALVSRGECSFAQKSVLSAKAGAVATIVYNNVDGSLAGTLGGATSELGPYSPIIGITLAAGQDLVARLQAAPTEVSLWIDSKVENRTTYNVIAQTKGGDPNNVVALGGHTDSVENGPGINDDGSGVISNLVVAKALTRYSVKNAVRFCFWTAEEFGLLGSNYYVDNLSPAELAKIRLYLNFDMIASPNYALMIYDGDGSAFNLTGPPGSAQIESLFENYYKSIKQGFVPTAFDGRSDYEGFILKGIPAGGVFTGAESLKTEEQARLFGGQAGVALDANYHAKGDNMTNLNHKAFLINSRATAFAVATYANNLSSIPPRNATVVKRESMKWTKREEPHTHGADTGCFASRVKE
modifications: Synthetic peptide with leader sequence
With B1 the Degree of hydrolysis (Na-caseinate; PepN 2 stock 0.02 mg/mL) was 16%, the Degree of hydrolysis (Na-caseinate; PepN 2 stock 0.03 mg/mL) was 19% and the Degree of hydrolysis (Na-caseinate; PepN 2 stock 0.04 mg/mL) was 19%. The Degree of hydrolysis (Na-caseinate; PepN 2 stock 0.05 mg/mL) was 20%, the Degree of hydrolysis (Na-caseinate; PepN 2 stock 0.1 mg/mL) was 21% and the Degree of hydrolysis (Na-caseinate; PepN 2 stock 0.15 mg/mL) was 23%. The Degree of hydrolysis (Na-caseinate; PepN 2 stock 0.2 mg/mL) was 24%, the Degree of hydrolysis (Na-caseinate; PepN 2 stock 0.25 mg/mL) was 24% and the Degree of hydrolysis (Na-caseinate; PepN 2 stock 0.3 mg/mL) was 24%. The Degree of hydrolysis (Na-caseinate; PepN 2 stock 0.35 mg/mL) was 27%, the Degree of hydrolysis (Na-caseinate; [5]) was 8% and the Degree of hydrolysis ([1]; PepN 2 stock 0.02 mg/mL) was 19%. The Degree of hydrolysis ([1]; PepN 2 stock 0.03 mg/mL) was 20%, the Degree of hydrolysis ([1]; PepN 2 stock 0.04 mg/mL) was 21% and the Degree of hydrolysis ([1]; PepN 2 stock 0.05 mg/mL) was 22%. It also gave a Degree of hydrolysis ([1]; PepN 2 stock 0.1 mg/mL) of 23%, a Degree of hydrolysis ([1]; PepN 2 stock 0.15 mg/mL) of 27% and a Degree of hydrolysis ([1]; PepN 2 stock 0.2 mg/mL) of 25%. The Degree of hydrolysis ([1]; PepN 2 stock 0.25 mg/mL) was 28%, the Degree of hydrolysis ([1]; PepN 2 stock 0.3 mg/mL) was 29% and the Degree of hydrolysis ([1]; PepN 2 stock 0.35 mg/mL) was 29%. For the same molecule, the Degree of hydrolysis [1, 5] was 8%, the Degree of hydrolysis ([2]; PepN 2 stock 0.02 mg/mL) was 11% and the Degree of hydrolysis ([2]; PepN 2 stock 0.03 mg/mL) was 12%. The Degree of hydrolysis ([2]; PepN 2 stock 0.04 mg/mL) was 13%, the Degree of hydrolysis ([2]; PepN 2 stock 0.05 mg/mL) was 14% and the Degree of hydrolysis ([2]; PepN 2 stock 0.1 mg/mL) was 16%. The Degree of hydrolysis ([2]; PepN 2 stock 0.15 mg/mL) was 15%, the Degree of hydrolysis ([2]; PepN 2 stock 0.2 mg/mL) was 17% and the Degree of hydrolysis ([2]; PepN 2 stock 0.25 mg/mL) was 21%. For the same molecule, the Degree of hydrolysis ([2]; PepN 2 stock 0.3 mg/mL) was 21%, the Degree of hydrolysis ([2]; PepN 2 stock 0.35 mg/mL) was 21% and the Degree of hydrolysis [2, 5] was 6%. The Degree of hydrolysis (gluten; PepN 2 stock 0.02 mg/mL) was 12%, the Degree of hydrolysis (gluten; PepN 2 stock 0.03 mg/mL) was 14% and the Degree of hydrolysis (gluten; PepN 2 stock 0.04 mg/mL) was 15%. It also gave a Degree of hydrolysis (gluten; PepN 2 stock 0.05 mg/mL) of 15%, a Degree of hydrolysis (gluten; PepN 2 stock 0.1 mg/mL) of 17% and a Degree of hydrolysis (gluten; PepN 2 stock 0.15 mg/mL) of 18%. For the same molecule, the Degree of hydrolysis (gluten; PepN 2 stock 0.2 mg/mL) was 17%, the Degree of hydrolysis (gluten; PepN 2 stock 0.25 mg/mL) was 19% and the Degree of hydrolysis (gluten; PepN 2 stock 0.3 mg/mL) was 19%. The Degree of hydrolysis (gluten; PepN 2 stock 0.35 mg/mL) was 22%, the Degree of hydrolysis (gluten; [5]) was 4% and the “hydrolysis of WHWLQLKPGQPMY to KPGQPMY and further down to QPMY” value [3] was “can hydrolyze”. The “product inhibition compared to TRI063 from A. oryzae” value [4] was “less inhibited by product”.
